Target: SARS-CoV-2 Omicron BA.2 spike extracellular domain trimer (SARS-CoV-2 (Omicron BA.2)) (UniProt P0DTC2)

Row | Substance | Kd
1 | JMB2002 IgG (antibody) | 0.3 nM
2 | JMB2002 Fab | 2.6 nM
